The target in test [1] is Alexa488-labeled WAVE1 PWCA (FRET donor construct) (human) (UniProt Q92558). Description: FRET or BRET; competition: 7.5 nM Alexa488-WAVE1 variant premixed with 175 nM LatB-stabilized Atto540Q-actin, profilin titrated; room temperature; 20 mM HEPES pH 7.0, 100 mM KCl. A general note: Bioluminescence resonance energy transfer reports proximity on the nanometre scale.
Test [2] shares this target. Description: FRET or BRET; 7.5 nM Alexa488-labeled WAVE1 variant titrated with LatB-stabilized Atto540Q-actin; donor quenching; room temperature; 20 mM HEPES pH 7.0, 100 mM KCl, 1.5 mM MgCl2, 1 mM EGTA, 1 mM ATP; single site binding curve.
Test [3] addresses Alexa488-labeled WAVE1 WCA (human). The description is as above.
In test [4] the target is WAVE1 PRD[A] (human) (UniProt Q92558). Description: AUC; sedimentation equilibrium; dye-labeled WAVE1 PRD variant with an excess of profilin (for PRD[B] 91.2, 44.8 and 21.7 μM); three speeds; 20°C; 25 mM HEPES pH 7.0, 50 mM KCl, 1 mM MgCl2, 1 mM EGTA, 0.5 mM TCEP; two-site independent model with one site fixed to the non-specific affinity.
Test [5] addresses WAVE1 PRD[B] (human) (UniProt Q92558). Described as above.
The target in test [6] is WAVE1 PRD[C] (human) (UniProt Q92558). The description is as above.
The target of test [7] is WAVE1 PRD[D] (human) (UniProt Q92558). Described as above.
For test [8], the target named is WAVE1 PRD[E] (human) (UniProt Q92558). The description is as above.
The target of test [9] is WAVE1 PRD[F] (human) (UniProt Q92558). The test is described as above.

From article PMC5753033 come the findings set out here.

Bounds are passed on as bounds.

By Kd is commonly meant the constant that tells how readily two partners part at equilibrium. A higher Kd goes with a looser complex. In [1], “Atto540Q-labeled actin monomers (Acanthamoeba castellanii), Latrunculin B-stabilized (natural protein)” returned a fraction of WH2 domains that contact actin at high profilin of more than 35%. Moreover, the residual fluorescence quenching at the highest profilin concentrations in test [1] was more than 30%. Further, the Kd in test [2] turned out to be 0.021 µM; in test [3], 0.061 µM.
Take “Human profilin 1 (from UniProt P07737 1-140) (natural protein)”: the Kd in test [4] was more than 10 µM; in [5], 2 µM; in test [6], more than 10 µM; in test [7], more than 10 µM; in test [8], more than 10 µM; in test [9] it was 4 µM.
